From paper PMC7442826, “The mechanism of activation of the actin binding protein EHBP1 by Rab8 family members” (Nature Communications, 2020) come the findings set out here.

Numbering of substitutions follows the chain as printed. Numbers in names are those of the source.

Sequences and labels used below:
B1: Rab8a_(1-176) (human Rab8a G-domain) (domain or fragment, UniProt P61006 1-176, looked up)
chain: MAKTYDYLFKLLLIGDSGVGKTCVLFRFSEDAFNSTFISTIGIDFKIRTIELDGKRIKLQIWDTAGQERFRTITTAYYRGAMGIMLVYDITNEKSFDNIRNWIRNIEEHASADVEKMILGNKCDVNDKRQVSKERGEKLALDYGIKFMETSAKANINVENAFFTLARDIKAKMDKK
notes: Rab8a G-domain, human, residues 1-176; in the stopped-flow assays to the fluorescent mantGppNHp (non-covalent); also called GppNHp Rab8a_(1-176); Rab8a_(GppNHp); source: preparatively loaded with GppNHp or mantGppNHp
B2: EHBP1 full-length bMERB domain M1116A (domain or fragment)
chain: not shown
notes: EHBP1 full-length bMERB domain, human, residues 1060-1212 as the wild-type construct; numbers on isoform 1 (Q8NDI1-1); also called bMERB_(M1116A); source: E. coli BL21 DE3-RIL, purified
B3: EHBP1 bMERB domain Q1176A (domain or fragment)
chain: not shown
notes: EHBP1 bMERB domain, human, residues 1060-1212 as the wild-type construct; numbers on isoform 1 (Q8NDI1-1); source: E. coli BL21 DE3-RIL, purified
B4: EHBP1 bMERB domain (bMERB_(1060-1212), full-length bMERB domain) (domain or fragment)
chain: not shown
notes: EHBP1 bMERB domain, human, residues 1060-1212, all three predicted helices; PDB 6ZSI and 6ZSJ hold the M1116A and F1120A mutants of the full-length bMERB domain; also called bMERB^EHBP1; full-length construct
B5: EHBP1 bMERB domain lacking the N-terminal helix (helices 2-3) (domain or fragment)
chain: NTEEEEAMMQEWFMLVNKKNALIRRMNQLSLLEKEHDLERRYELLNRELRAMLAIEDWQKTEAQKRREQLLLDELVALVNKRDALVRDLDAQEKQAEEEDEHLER
B6: EHBP1 full-length bMERB domain F1120A (domain or fragment)
chain: not shown
notes: EHBP1 full-length bMERB domain, human, residues 1060-1212 as the wild-type construct; numbers on isoform 1 (Q8NDI1-1); also called bMERB_(F1120A); source: E. coli BL21 DE3-RIL, purified
B7: EHBP1 CH (calponin homology) domain (domain or fragment, human)
chain: GRKPNASQSLLVWCKEVTKNYRGVKITNFTTSWRNGLSFCAILHHFRPDLIDYKSLNPQDIKENNKKAYDGFASIGISRLLEPSDMVLLAIPDKLTVMTYLYQIRAHFSGQ
notes: EHBP1 central CH domain, human; also called CH domain; CH^EHBP1
B8: Cy3 labeled EHBP1 CH domain (domain or fragment, human)
chain: B7 chain
modifications: Cy3 on the N-terminus
notes: EHBP1 central CH domain, human; also called Cy3-CH; source: E. coli BL21 DE3-RIL, purified; labelled with Cy3-thioester
B9: EHBP1 CH domain D532A (domain or fragment, human)
chain: B7 chain with D93A
notes: EHBP1 CH domain, human; numbers on isoform 1 (Q8NDI1-1); source: E. coli BL21 DE3-RIL, purified
B10: EHBP1 bMERB_(H1-2) (bMERB domain lacking the C-terminal helix) (domain or fragment)
chain: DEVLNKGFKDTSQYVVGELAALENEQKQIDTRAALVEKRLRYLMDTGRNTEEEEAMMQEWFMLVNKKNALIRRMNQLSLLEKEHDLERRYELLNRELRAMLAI

Holding throughout (details): both partners purified
For assay [1], the target named is T1, EHBP1 bMERB domain R1189A (human, UniProt Q8NDI1-1 1060-1212, R1189A).
T1 construct: EHBP1 bMERB domain, human, residues 1060-1212 as the wild-type construct; numbers on isoform 1 (Q8NDI1-1); source: E. coli BL21 DE3-RIL, purified
T1 sequence (Q8NDI1 1060-1212 R1189A): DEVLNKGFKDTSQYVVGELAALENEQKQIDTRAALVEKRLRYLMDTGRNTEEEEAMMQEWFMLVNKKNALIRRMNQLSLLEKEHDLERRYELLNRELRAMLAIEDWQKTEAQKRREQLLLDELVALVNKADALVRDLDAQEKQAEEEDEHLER
In words: ITC; 500 µM GppNHp Rab titrated into 50 µM bMERB domain; 20 mM Hepes 7.5, 50 mM NaCl, 1 mM MgCl2, 1 mM TCEP; 25 °C; one-site-binding model.

Assay [2] addresses T2, EHBP1 bMERB domain L1156S (human, UniProt Q8NDI1-1 1060-1212, L1156S).
T2 construct: EHBP1 bMERB domain, human, residues 1060-1212 as the wild-type construct; numbers on isoform 1 (Q8NDI1-1); source: E. coli BL21 DE3-RIL, purified
The description is as above.

The target of assay [3] is T3, EHBP1 bMERB domain N1187A (human, UniProt Q8NDI1-1 1060-1212, N1187A).
T3 construct: EHBP1 bMERB domain, human, residues 1060-1212 as the wild-type construct; numbers on isoform 1 (Q8NDI1-1); source: E. coli BL21 DE3-RIL, purified
T3 sequence (Q8NDI1 1060-1212 N1187A): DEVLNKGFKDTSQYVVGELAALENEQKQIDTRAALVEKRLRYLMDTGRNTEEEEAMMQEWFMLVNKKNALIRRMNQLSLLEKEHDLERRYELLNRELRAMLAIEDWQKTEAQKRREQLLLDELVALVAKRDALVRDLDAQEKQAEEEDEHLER
The description is as above.

The target of assay [4] is T4, EHBP1 bMERB domain L1179S (human, UniProt Q8NDI1-1 1060-1212, L1179S).
T4 construct: EHBP1 bMERB domain, human, residues 1060-1212 as the wild-type construct; numbers on isoform 1 (Q8NDI1-1); source: E. coli BL21 DE3-RIL, purified
T4 sequence (Q8NDI1 1060-1212 L1179S): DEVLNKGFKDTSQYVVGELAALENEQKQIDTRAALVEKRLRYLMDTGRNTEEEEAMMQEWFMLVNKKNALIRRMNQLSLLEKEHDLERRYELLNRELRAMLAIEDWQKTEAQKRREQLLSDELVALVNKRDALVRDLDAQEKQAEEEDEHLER
The assay is described as above.

In assay [5] the target is T5, EHBP1 bMERB domain V1186A (human, UniProt Q8NDI1-1 1060-1212, V1186A).
T5 construct: EHBP1 bMERB domain, human, residues 1060-1212 as the wild-type construct; numbers on isoform 1 (Q8NDI1-1); source: E. coli BL21 DE3-RIL, purified
T5 sequence (Q8NDI1 1060-1212 V1186A): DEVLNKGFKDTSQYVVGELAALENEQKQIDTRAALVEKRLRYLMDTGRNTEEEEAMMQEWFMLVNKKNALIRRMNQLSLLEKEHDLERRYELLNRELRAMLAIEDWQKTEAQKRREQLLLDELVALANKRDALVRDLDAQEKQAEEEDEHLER
The assay is described as above.

Assay [6] deals with T6, EHBP1 bMERB domain L1182S (human, UniProt Q8NDI1-1 1060-1212, L1182S).
T6 construct: EHBP1 bMERB domain, human, residues 1060-1212 as the wild-type construct; numbers on isoform 1 (Q8NDI1-1); source: E. coli BL21 DE3-RIL, purified
T6 sequence (Q8NDI1 1060-1212 L1182S): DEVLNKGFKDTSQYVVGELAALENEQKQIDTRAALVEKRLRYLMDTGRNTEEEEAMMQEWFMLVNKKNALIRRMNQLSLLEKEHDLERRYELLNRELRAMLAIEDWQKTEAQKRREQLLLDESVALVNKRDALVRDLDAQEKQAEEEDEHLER
Described as above.

The target in assay [7] is B1. In words: crystal structure; sitting-drop vapor diffusion, 20 °C; 300–400 µM 1:1 complexes.
Assay [8] has as its target B1. In words: ITC; 500 µM GppNHp Rab titrated into 50 µM bMERB domain; 20 mM Hepes 7.5, 50 mM NaCl, 1 mM MgCl2, 1 mM TCEP; 25 °C; one-site-binding model.
For assay [9], the target named is B1. In words: stopped-flow fluorescence kinetics; dissociation: complex of mantGppNHp Rab8a_(1-176) with the bMERB domain (2 µM) mixed with a 20-fold excess of unlabeled GppNHp Rab8a_(1-176); 25 °C.
Assay [10] has as its target T7, Rab10_(1-175_T73E) (phosphomimetic Rab10) (human, UniProt P61026 1-175, T73E).
T7 construct: Rab10 G-domain, human, residues 1-175, phosphomimetic switch II mutant; also called Rab10_(T73E); 10_(T73E)
T7 sequence (looked up): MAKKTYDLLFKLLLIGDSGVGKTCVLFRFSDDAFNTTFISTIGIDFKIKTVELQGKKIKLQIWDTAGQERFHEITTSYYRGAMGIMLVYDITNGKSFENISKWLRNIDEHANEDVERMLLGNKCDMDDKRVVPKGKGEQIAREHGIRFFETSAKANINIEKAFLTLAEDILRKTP
The assay is described as follows: SEC; analytical SEC, Superdex 75 10/300 GL; 110 µM bMERB domain mixed with 121 µM GppNHp Rab (1:1.1); 20 mM Hepes 7.5, 50 mM NaCl, 1 mM MgCl2, 2 mM DTE; room temperature.

In assay [11] the target is T8, Rab10_(1-175) (human Rab10 G-domain) (human, UniProt P61026 1-175).
T8 construct: Rab10 G-domain, human, residues 1-175
T8 sequence (looked up): T7 sequence (looked up) with E73T
The assay is described as follows: ITC; 500 µM GppNHp Rab titrated into 50 µM bMERB domain; 20 mM Hepes 7.5, 50 mM NaCl, 1 mM MgCl2, 1 mM TCEP; 25 °C; one-site-binding model.

In assay [12] the target is T9, Rab8a_(1-176_T72E) (phosphomimetic Rab8a) (human, UniProt P61006 1-176, T72E).
T9 construct: Rab8a G-domain, human, residues 1-176, phosphomimetic switch II mutant; also called Rab8a_(T72E)
T9 sequence (looked up): B1 chain with T72E
Described as above.

In assay [13] the target is B1. In words: stopped-flow fluorescence kinetics; association: 0.5 µM mantGppNHp Rab8a_(1-176) with 1.5–8 µM bMERB domain, pseudo first order; koff from the y-axis intercept; Rab buffer, 25 °C.
In assay [14] the target is B4. In words: ITC; 600–800 µM CH domain titrated into 40–60 µM bMERB domain; 20 mM Hepes 7.5, 150 mM NaCl, 1 mM TCEP; 25 °C; one-site-binding model.
In assay [15] the target is F-actin (rabbit skeletal muscle actin, polymerized) (rabbit, UniProt P68135 1-377). In words: co-sedimentation; 10 µM F-actin with 0–60 µM EHBP1 CH domain, 1 h RT; 5 mM Tris-HCl pH 7.5, 0.18 mM CaCl2, 15 mM KCl, 1 mM DTT, 1.8 mM NaN3; 100,000 g 1 h 4 °C; densitometry of SDS-PAGE.
In assay [16] the target is B4. In words: stopped-flow fluorescence kinetics; association: 0.5 µM Cy3 labeled CH domain with 2–16 µM full-length bMERB domain; koff from the y-axis intercept; CH buffer, 25 °C.
Assay [17] addresses B4. In words: stopped-flow fluorescence kinetics; dissociation: complex of Cy3 labeled CH with full-length bMERB domain (2 µM) mixed with a 20-fold excess of unlabeled CH domain; CH buffer.
Assay [18] concerns the target B7. In words: ITC; 600–800 µM CH domain titrated into 40–60 µM bMERB domain; 20 mM Hepes 7.5, 150 mM NaCl, 1 mM TCEP; 25 °C; one-site-binding model.

T2 sequence (Q8NDI1 1060-1212 L1156S): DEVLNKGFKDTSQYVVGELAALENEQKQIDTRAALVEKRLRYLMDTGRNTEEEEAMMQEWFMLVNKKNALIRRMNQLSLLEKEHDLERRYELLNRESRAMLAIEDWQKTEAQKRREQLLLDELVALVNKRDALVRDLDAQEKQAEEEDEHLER

Take B1: the “fold reduction in binding affinity against the wild-type bMERB domain” value was 20 fold in assay [1], 5 fold in assay [3] and above 30 fold in assay [5]. The “fold reduction in affinity against the wild-type bMERB domain” value in assay [2] is 47 fold. Further, the “fold decrease in binding affinity against the wild-type bMERB domain” value in [4] and in assay [6] was 10 fold throughout.

Consider B2, for which the binding result in [7] was “binds”.

As to B3, the binding result in assay [8] is on record as “binds”.

For the molecule B4, the off-rate (koff) came out at 13.8 s⁻¹ in assay [9] and 13.4 s⁻¹ in assay [13]. The binding result in [10], in assay [11] and in assay [12] was “binds” each time. The results for the Kd in assay [8] and in [13] were 310 nM and 480 nM, respectively. The kon in assay [13] is 2.79e+07 M⁻¹ s⁻¹.

B5 displayed a dissociation constant Kd in [8] of 300 nM.

Take B6: the binding result in [7] was “binds”.

As to B7, in assay [14], the dissociation constant (Kd) is 1200 nM and the “stoichiometry N” value came to 1. The same molecule returned a Kd in [15] of 9.34 ± 1.86 µM.

Take B8: in assay [16], the dissociation constant (Kd) is 3.75 to 4.23 µM, the off-rate (koff) came out at 104 s⁻¹ and the kon came out at 2.76e+07 M⁻¹ s⁻¹. This molecule also displayed a dissociation rate constant (koff) in assay [17] of 117 s⁻¹.

Turning to B9, the “fold reduction in binding affinity against the wild-type CH domain” value in assay [14] is above 40 fold.

On to B10, for which the equilibrium dissociation constant (Kd) in assay [18] came out at 780 nM.
